Assay results from patent US20200347130A1 (JIANGSU HENGRUI MEDICINE, published 2020).
Where a chain is given by its changes, count along the chain named.

Target: T1, CD96 extracellular region with His tag (CD96-His) (human, UniProt P40200 22-519)
T1 construct: also called CD96-ECD-His; Bio-CD96-His (biotin-labelled form)
T1 sequence: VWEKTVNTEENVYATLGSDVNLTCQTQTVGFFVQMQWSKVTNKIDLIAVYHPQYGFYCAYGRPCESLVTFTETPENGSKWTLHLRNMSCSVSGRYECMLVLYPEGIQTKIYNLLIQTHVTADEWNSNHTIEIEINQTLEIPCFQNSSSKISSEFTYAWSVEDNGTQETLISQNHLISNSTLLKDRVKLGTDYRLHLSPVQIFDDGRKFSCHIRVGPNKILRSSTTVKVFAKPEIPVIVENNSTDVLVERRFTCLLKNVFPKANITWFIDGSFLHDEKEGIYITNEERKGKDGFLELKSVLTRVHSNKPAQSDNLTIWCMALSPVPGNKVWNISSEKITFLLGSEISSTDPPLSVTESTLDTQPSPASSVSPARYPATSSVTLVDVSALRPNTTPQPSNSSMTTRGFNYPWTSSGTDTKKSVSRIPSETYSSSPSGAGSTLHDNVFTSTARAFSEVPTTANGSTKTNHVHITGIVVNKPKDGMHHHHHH
Assay: SPR (Biacore), antibody captured, CD96-ECD-His as mobile phase
From the text: Protein A biosensor chip was used to capture antibodies to be tested, then CD96 antigen was flowed on the surface of the chip, and real time reaction signal was detected by Biacore to obtain the binding and dissociation curve. After the dissociation of each experimental cycle was completed, the biosensor chip was washed and regenerated with a glycine-hydrochloric acid regeneration solution (pH 1.5).

B1: h1722-007 (antibody, V domains shown)
VH: EVQLVQSGAEVKKPGSSVKVSCKASGGTFSDYWMHWVKQAPGQGLEWIGMLHPNSGTTSFNEKFKIRVTITIDKSTSTAYMELSSLRSEDTAVYYCASDYSGPFAYWGQGTLVTVSS
VL: DIQMTQSPSSLSASVGDRVTITCSASSSVNYIHWYQQKPGKAPKRWIYDTSKLASGVPSRFSGSGSGTDFTLTISSLQPEDFATYYCQQWRSNPLTFGQGTKLEIK
notes: Only variable regions are tied to this name
**Q.** Which Kd does the source give for B1 here?
**A.** The Kd was 1.31 nM.

B2: h1722-011 (antibody, V domains shown)
VH: B1 VH
VL: B1 VL with M4L, Y48F, F70Y
notes: as for B1
**Q.** B2 was tested. Which Kd did it give?
**A.** Its Kd is 0.948 nM.

B3: h1722-009 (antibody, V domains shown)
VH: B1 VH with K38R, I48M, I72A, S98R
VL: B1 VL with M4L, Y48F, F70Y
notes: as for B1
**Q.** With B3 as the binder, how does the Kd read?
**A.** The Kd was 4.55 nM.

B4: h1722-012 (antibody, V domains shown)
VH: B1 VH with G27N, V68T
VL: B1 VL with M4L, Y48F, F70Y
notes: as for B1
**Q.** How did the Kd turn out when B4 was run?
**A.** The Kd was 0.781 nM.

B5: h1722-008 (antibody, V domains shown)
VH: B1 VH with G27N, V68T
VL: B1 VL
notes: as for B1
**Q.** Which Kd does the source give for B5 here?
**A.** The Kd was 1 nM.

B6: h1718-007 (antibody, V domains shown)
VH: EVQLVQSGAEVKKPGASVKVSCKASGYTITDYNMNWVRQAPGQRLEWIGVINPSYGITDYNQNFKDRVTITVDTSASTAYMELSSLRSEDTAVYYCAIQLRLPGYFDVWGQGTTVTVSS
VL: DIQMTQSPSSLSASVGDRVTITCKASQDINNYLNWFQQKPGKAPKTLIYRANRLVDGVPSRFSGSGSGQDYTLTISSLQPEDFATYYCLKYDEFPYTFGGGTKVEIK
notes: as for B1
**Q.** How did the Kd turn out when B6 was run?
**A.** Its Kd is 3.88 nM.

B7: h1718-019 (antibody, V domains shown)
VH: B6 VH with R38K, R67K
VL: B6 VL with N31T
notes: as for B1
**Q.** Which Kd does the source give for B7 here?
**A.** Its Kd is 3.7 nM.

B8: h1718-013 (antibody, V domains shown)
VH: B6 VH
VL: B6 VL with N31T
notes: as for B1
**Q.** B8 was tested. Which Kd did it give?
**A.** Its Kd is 4.08 nM.

B9: h1718-020 (antibody, V domains shown)
VH: B6 VH with R38K, R67K
VL: B6 VL with N31L
notes: as for B1
**Q.** Which Kd does the source give for B9 here?
**A.** The Kd was 3.41 nM.

B10: h1718-018 (antibody, V domains shown)
VH: B6 VH with R38K, R67K
VL: B6 VL with N31Q
notes: as for B1
**Q.** How did the Kd turn out when B10 was run?
**A.** The Kd was 3.82 nM.

B11: h1718-014 (antibody, V domains shown)
VH: B6 VH
VL: B6 VL with N31L
notes: as for B1
**Q.** For B11, which Kd is on record?
**A.** Its Kd is 4.31 nM.

B12: h1718-008 (antibody, V domains shown)
VH: B6 VH with R38K, R67K
VL: B6 VL
notes: as for B1
**Q.** Which Kd does the source give for B12 here?
**A.** Its Kd is 3.37 nM.

B13: h1719-007 (antibody, V domains shown)
VH: EVTLKESGPVLVKPTETLTLTCTVSGFSLSSYGVSWVRQPPGKGLEWLGVIWGDGNTNYHSVLISRLTISKDTSKSQVVLTLTNMDPVDTATYYCAKQNYYGSRYGYPLDYWGQGTTVTVSS
VL: DIQMTQSPSSVSASVGDRVTITCKATQDVGTAVAWYQQKPGKAPKLLIYWASTRHTGVPSRFSGSGSGTDFTLTISSLQPEDFATYYCQQYGSSVLTFGGGTKVEIK
notes: as for B1
**Q.** For B13, which Kd is on record?
**A.** The Kd was 25.5 nM.

B14: h1719-008 (antibody, V domains shown)
VH: B13 VH with Q98N, N99Y
VL: B13 VL
notes: as for B1
**Q.** How did the Kd turn out when B14 was run?
**A.** The Kd was 17.6 nM.

B15: h1719-013 (antibody, V domains shown)
VH: B13 VH
VL: B13 VL with A43S, S60E, Y87F
notes: as for B1
**Q.** With B15 as the binder, how does the Kd read?
**A.** Its Kd is 19.8 nM.

B16: h1719-016 (antibody, V domains shown)
VH: B13 VH with L109I
VL: B13 VL with A43S, S60E, Y87F
notes: as for B1
**Q.** For B16, which Kd is on record?
**A.** Its Kd is 90.7 nM.

B17: h1721-007 (antibody, V domains shown)
VH: EVTLKESGPVLVKPTETLTLTCTVSGFSLSSYGVNWIRQPPGKALEWLGVIWGDGSTNYHSALISRLTISKDTSKSQVVLTLTNMDPVDTATYYCAKNYFYGSRYGYAMDSWGQGTTVTVSS
VL: DIQMTQSPSSLSASVGDRVTITCRASENIYSSLAWYQQKPGKAPKLLVYNAKTLIEGVPSRFSGSGSGTDYTLTISSLQPEDFATYYCQHHYGTPYTFGGGTKVEIK
notes: as for B1
**Q.** B17 was tested. Which Kd did it give?
**A.** Its Kd is 1.87 nM.

B18: h1721-008 (antibody, V domains shown)
VH: B17 VH with I37V, A44G
VL: B17 VL
notes: as for B1
**Q.** With B18 as the binder, how does the Kd read?
**A.** The Kd was 2.22 nM.

B19: h1721-006 (antibody, V domains shown)
VH: B17 VH with L82M
VL: B17 VL
notes: as for B1
**Q.** B19 was tested. Which Kd did it give?
**A.** The Kd was 2.29 nM.

B20: h1721-004 (antibody, V domains shown)
VH: B17 VH with I37V, A44G
VL: B17 VL with V48I, Y71F
notes: as for B1
**Q.** How did the Kd turn out when B20 was run?
**A.** The Kd was 2 nM.

B21: h1721-002 (antibody, V domains shown)
VH: B17 VH with L82M
VL: B17 VL with V48I, Y71F
notes: as for B1
**Q.** For B21, which Kd is on record?
**A.** Its Kd is 2.2 nM.

B22: h1721-001 (antibody, V domains shown)
VH: B17 VH with G49A, L82M, K97R
VL: B17 VL with V48I, Y71F
notes: as for B1
**Q.** How did the Kd turn out when B22 was run?
**A.** The Kd was 2.73 nM.

B23: h1721-010 (antibody, V domains shown)
VH: B17 VH with L82M
VL: B17 VL with A43S
notes: as for B1
**Q.** Which Kd does the source give for B23 here?
**A.** Its Kd is 2.04 nM.

B24: h1721-009 (antibody, V domains shown)
VH: B17 VH with G49A, L82M, K97R
VL: B17 VL with A43S
notes: as for B1
**Q.** B24 was tested. Which Kd did it give?
**A.** The Kd was 2.01 nM.

B25: h1721-011 (antibody, V domains shown)
VH: B17 VH
VL: B17 VL with A43S
notes: as for B1
**Q.** For B25, which Kd is on record?
**A.** Its Kd is 2.12 nM.

B26: h1721-005 (antibody, V domains shown)
VH: B17 VH with G49A, L82M, K97R
VL: B17 VL
notes: as for B1
**Q.** Which Kd does the source give for B26 here?
**A.** The Kd was 2.25 nM.

B27: h1721-012 (antibody, V domains shown)
VH: B17 VH with I37V, A44G
VL: B17 VL with A43S
notes: also called h1721-0012
**Q.** With B27 as the binder, how does the Kd read?
**A.** Its Kd is 2.14 nM.
